Earlier results as cited in PMC7337057.

What was measured:
[1] = biological target: Glu118 (UniProt position 118, WFVGREQERRG); experiment: NMR (solid-state); settings: not stated for this study (around 0 °C is stated for related SSNMR work from the same laboratory); 0.2 μM K+; K+ titrated at constant pH and ionic strength (value not stated); low ambient K+ (0.2 μM): K+-apo, collapsed selectivity filter, pH gate favoured open
[2] = biological target: Glu120 (UniProt position 120, VGREQERRGHF); experiment: NMR (solid-state); settings: not stated for this study (around 0 °C is stated for related SSNMR work from the same laboratory); 0.2 μM K+; K+ titrated at constant pH and ionic strength (value not stated); low ambient K+ (0.2 μM): K+-apo, collapsed selectivity filter, pH gate favoured open

KcsA potassium channel (pH-gated K+ channel) (Streptomyces lividans)
pKa [1]: above 7.5
pKa [2]: above 7.5
